How the values were obtained:
[1] = target: HLA-E*01:03 heavy chain with human β2-microglobulin (human); test: HPLC size exclusion chromatography peptide competition binding assay
[2] = target: HLA-E*01:01 heavy chain with human β2-microglobulin (human); test: as above
[3] = target: HLA-E*01:03 heavy chain with human β2-microglobulin (human); test: HPLC size exclusion chromatograph
[4] = target: HLA-E*01:01 heavy chain with human β2-microglobulin (human); test: HPLC size exclusion chromatograph
[5] = test system: HLA-E; conditions: no reference given; cited from earlier work
[6] = Aggregation of the proteins with norleucine fluorescent standard peptide; format: physicochemical; conditions: norleucine vs methionine in position 2 of fluorescent standard peptide
[7] = target: HLA-E*01:01 (Homo sapiens, UniProt P13747, G128R); test: UV-mediated peptide exchange binding assay; conditions: s/p ratio, at least two independent experiments
[8] = target: HLA-E*01:03 (Homo sapiens, UniProt P13747); test: UV-mediated peptide exchange binding assay; conditions: s/p ratio, at least two independent experiments
[9] = target: Qa-1^b (Mus musculus, UniProt P06339); test: UV-mediated peptide exchange binding assay; parameters: species or system mice; conditions: s/p ratio, at least two independent experiments
[10] = test system: Mamu-E; format: binding, rhesus macaques; conditions: s/p ratio, at least two independent experiments

Substance | Effect of alanine substitution on binding [7] | Effect of alanine substitution on binding [8] | Effect of alanine substitution on binding [9] | Effect of alanine substitution on binding [10] | also measured
Qdm (peptide) |  |  |  |  | IC50 [1]: < 100 µM; IC50 [2]: < 100 µM
VL9 (peptide) |  |  |  |  | IC50 [3]: < 100 µM; IC50 [4]: < 100 µM
VLAPRTLLL [pCMV] |  |  |  |  | Known binding to HLA-E of control peptides [5]: high binding capacity to HLA-E
VXAPCTLLL |  |  |  |  | Unspecific aggregation of the proteins [6]: reduced unspecific aggregation of the proteins
pCMV P2-Ala: pCMV with Ala in position 2 (VAAPRTLLL) | considerable loss of binding | considerable loss of binding | considerable loss of binding | considerable loss of binding | 
pCMV P7-Ala: pCMV with Ala in position 7 (VLAPRTALL) | complete or almost complete loss of binding | complete or almost complete loss of binding | complete or almost complete loss of binding | complete or almost complete loss of binding | 
pCMV P9-Ala: pCMV with Ala in position 9 (VLAPRTLLA) | complete or almost complete loss of binding | complete or almost complete loss of binding | complete or almost complete loss of binding | complete or almost complete loss of binding | 

— article PMC7653511 (Journal of immunology (Baltimore, Md. : 1950), 2020)
